The source of these data is paper PMC8136826.

For the series, the target named is Cas12a ΔBH (Francisella novicida, UniProt A0Q7Q2 1-1300, del953-969). The series is described as follows: EMSA. On the technique in general: Mobility shift assays separate free from complexed probe on a gel.

B1: crRNA + dsDNA target (58 nt, TS/NTS) (mixed)
RNA: UAAUUUCUACUGUUGUAGAUGUGAUAAGUGGAAUGCCAUGUGGG
DNA 1: ACTCAATTTTGACAGCCCACATGGCATTCCACTTATCACTAAAGGCATCCTTCCACGT
DNA 2: ACGTGGAAGGATGCCTTTAGTGATAAGTGGAATGCCATGTGGGCTGTCAAAATTGAGT
Turning to B1, the binding result is recorded as “binds”.
